Results on 2 molecules are retold here after US20210024601A1 (published 2021).

The target in assay [1] is N71Y.
In assay [2] the target is I114W.
For assay [3], the target named is L72I.
Assay [4] concerns the target M104D.
For assay [5], the target named is V69A.
For assay [6], the target named is T1, recombinant human CD25 extracellular domain tagged with 6xHis (human, UniProt P01589 22-240).
T1 chain: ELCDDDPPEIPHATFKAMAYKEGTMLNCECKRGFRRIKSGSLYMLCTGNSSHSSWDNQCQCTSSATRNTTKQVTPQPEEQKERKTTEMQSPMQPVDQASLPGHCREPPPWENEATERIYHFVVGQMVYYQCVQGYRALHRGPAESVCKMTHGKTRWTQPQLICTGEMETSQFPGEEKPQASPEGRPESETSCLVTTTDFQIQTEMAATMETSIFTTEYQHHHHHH

B1: CD25 (receptor)
chain: ELCDDDPPEIPHATFKAMAYKEGTMLNCECKRGFRRIKSGSLYMLCTGNSSHSSWDNQCQCTSSATRNTTKQVTPQPEEQKERKTTEMQSPMQPVDQASLPGHCREPPPWENEATERIYHFVVGQMVYYQCVQGYRALHRGPAESVCKMTHGKTRWTQPQLICTGEMETSQFPGEEKPQASPEGRPESETSCLVTTTDFQIQTEMAATMETSIFTTEYQHHHHHH
Broadly, the Kd is the constant that tells how readily two partners part at equilibrium. Consider B1, for which the Kd is 0.018 nM in assay [1]; 0.038 nM in assay [2]; 0.024 nM in assay [3]; 0.028 nM in assay [4]; 0.023 nM in assay [5].

B2: E68Q (protein)
chain: APTSSSTKKTQLQLEHLLLDLQMILNGINNYKNPKLTRMLTFKFYMPKKATELKHLQCLEEELKPLEQALNLAPSKNFHLRPRDLISNINVIVLELKGSETTFMCEYADETATIVEFLNRWITFSQSIISTLT
In the case of B2, in assay [6], the equilibrium dissociation constant (Kd) amounted to 0.022 nM.
